Values belong to the binder of their own block, whether it stands above or below them.
Columns and labels:
Test in all cases: SPR
[1] = target: IgV domain of human SIRPα v1 (Homo sapiens (Human)., UniProt P78324-1)
[2] = target: IgV domain of human SIRPα v2 (Homo sapiens, SIRPα allele v2 …, strain)
[3] = target: T1, IgV domain of cynomolgus SIRPα (Macaca fascicularis, EHH65484.1 allele)
T1 chain: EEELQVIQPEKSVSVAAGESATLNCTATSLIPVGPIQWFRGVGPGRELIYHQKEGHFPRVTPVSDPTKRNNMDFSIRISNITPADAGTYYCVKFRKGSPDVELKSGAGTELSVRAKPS

[4] = target: T2, IgV domain of mouse NOD SIRPα (Mus musculus, strain NOD, strain)
T2 chain: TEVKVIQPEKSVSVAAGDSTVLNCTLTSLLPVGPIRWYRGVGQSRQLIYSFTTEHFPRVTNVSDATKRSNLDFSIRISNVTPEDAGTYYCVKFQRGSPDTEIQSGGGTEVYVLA

[5] = target: IgV domain of mouse C57BL/6 SIRPα (Mus musculus, strain C57BL/6, UniProt P97797, strain)
[6] = target: T3, IgV domain of mouse BALB/c SIRPα (Mus musculus, strain BALB/c, strain)
T3 chain: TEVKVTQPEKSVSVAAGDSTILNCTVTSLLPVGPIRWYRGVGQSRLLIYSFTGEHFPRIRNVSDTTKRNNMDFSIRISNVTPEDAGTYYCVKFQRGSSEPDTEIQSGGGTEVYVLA

[7] = target: IgV domain of human SIRPγ (Homo sapiens, SIRPγ NP_061026.2, UniProt Q9P1W8)
[8] = target: IgV domain of human SIRPβ1 (Homo sapiens, SIRPβ1 NP_006056.2, UniProt O00241)

IgV domain of human SIRPα v1, sequence (P78324 31-149): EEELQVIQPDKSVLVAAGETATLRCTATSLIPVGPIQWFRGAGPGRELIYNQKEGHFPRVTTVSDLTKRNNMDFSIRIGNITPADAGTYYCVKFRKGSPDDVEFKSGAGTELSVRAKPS

B2: anti-SIRPα clone 218, scFv-Fc (scFv, V domains shown)
VH: DVQLVESGGGVVRPGESLTLSCTASGFTFTSSTMNWVRQAPGEGLDWVSSISTSGVITYYADSVKGRATISRDNSKNTLYLRLFSLRADDTAIYYCATDTFDHWGPGTLVTVSS
VL: ALTQPASVSANPGETVKITCFGSSGNYGWFQQKSPGSAPVTVIHYNNKRPSDIPSRFSGSKSGSTGTLTITGVRAEDEAVYFCGAWETGSATFGAGTTLTVL
Kd [1]: 0.123 nM
Kd [2]: 0.276 nM
Kd [3]: 0.0599 nM
binding result [5]: no binding (tested: 100 nM)
Kd [7]: 0.0636 nM
binding result [8]: binds

B3: anti-SIRPα antibody clone 136, full-length IgG1 (antibody, V domains shown)
VH: not shown
VL: ETVLTQSPGTLTLSPGERATLTCRASQSVYTYLAWYQEKPGQAPRLLIYGASSRATGIPDRFSGSGSGTEFTLTISSLQSEDFAVYYCQQYYDRPPLTFGGGTKVEIK
Kd [1]: 0.458 nM
Kd [2]: 1.63 nM
Kd [3]: 2.15 nM
Kd [4]: 0.554 nM
Kd [5]: 12.7 nM
Kd [6]: 0.35 nM
Kd [7]: 23.9 nM
Kd [8]: 4.35 nM

Further lines, results first:

Kd [1]: 0.162 nM
Kd [2]: 0.0767 nM
Kd [3]: 2.29 nM
Kd [4]: 1.63 nM
Kd [5]: 3.65 nM
Kd [6]: 1.16 nM
Kd [7]: 83.6 nM
Kd [8]: 1.63 nM
B1: anti-SIRPα antibody clone 3, full-length IgG1 (antibody, V domains shown)
VH: AVTLDESGGGLQTPGGALSLVCKASGFIFSDYGMNWVRQAPGKGLEFVAQITSGSRTYYGAAVKGRATISRDNRQSTVKLQLNNLRAEDTGIYFCARDFGSGVGSIDAWGNGTEVIVSS
VL: ALTQPASVSANLGGTVKITCSGSRGRYGWYQQRSPGSAPVTVIYRDNQRPSNIPSRFSSSTSGSTSTLTITGVQADDESVYFCGSYDGSIDIFGAGTTLTVL

Kd [1]: 0.183 nM
Kd [2]: 0.0682 nM
Kd [3]: 0.112 nM
binding result [5]: no binding (tested: 100 nM)
Kd [7]: 0.267 nM
Kd [8]: 0.342 nM
B4: anti-SIRPα antibody clone 119, full-length IgG1 (antibody, V domains shown)
VH: DVQLLESGGGVVQPGGSLRLSCAASGFSFSNFAMTWVRQAPGEGLEWVSTIGSGDTYYADSVKGRFTISRDNSKNTLYLQMNSLRAEDTAVYYCAKDSTVSWSGDFFDYWGQGTLVTVSS
VL: EIVLTQSPATLSVSPGERATFSCRASQNVKNDLAWYQQRPGQAPRLLIYAARIRETGIPERFSGSGSGTEFTLTITSLQSEDFAVYYCQQYYDWPPFTFGGGTKVEIK

Kd [1]: 0.426 nM
Kd [2]: 1.86 nM
Kd [3]: 2.41 nM
binding result [5]: no binding (tested: 100 nM)
binding result [7]: binds
binding result [8]: binds
B5: anti-SIRPα antibody clone 115, full-length IgG1 (antibody, V domains shown)
VH: DVQLVESGGGVVRPGESLRLSCAASGFSFSSYAMNWVRQAPGEGLEWVSRINSGGGGTDYAESVKGRFTISRDNSENTLYLQMNSLRAEDTAVYYCAKQYDWNSFFDYWGLGALVTVSS
VL: ETVLTQSPATLSVSPGERATLSCRASQTVGSKLAWHQQKPGQAPRLLIYDATNRATGISDRFSGSGSGTDFTLTISSLQTEDSAVYYCQQYYYWPPYRFGGGTKVEIK

— article PMC6748616 (mAbs, 2019)
